Results taken from patent US20100015126A1, “Methods of Binding of Cross-Beta Structures By Chaperones” (priority 2006, published 2010).

How the values were obtained:
[1] = target: Heat shock 70 kDa protein 1L (human) (UniProt P34931); assay: BiP-Sepharose pull-down, RA synovial fluid sample 5B, 1 M NaCl eluate, MS; may be indirect
[2] = target: Histidine-rich glycoprotein precursor (human) (UniProt P04196); assay: as above
[3] = target: Serotransferrin precursor (human) (UniProt P02787); assay: as above
Sequence of Serotransferrin precursor (human) (P02787 20-698 limits assumed): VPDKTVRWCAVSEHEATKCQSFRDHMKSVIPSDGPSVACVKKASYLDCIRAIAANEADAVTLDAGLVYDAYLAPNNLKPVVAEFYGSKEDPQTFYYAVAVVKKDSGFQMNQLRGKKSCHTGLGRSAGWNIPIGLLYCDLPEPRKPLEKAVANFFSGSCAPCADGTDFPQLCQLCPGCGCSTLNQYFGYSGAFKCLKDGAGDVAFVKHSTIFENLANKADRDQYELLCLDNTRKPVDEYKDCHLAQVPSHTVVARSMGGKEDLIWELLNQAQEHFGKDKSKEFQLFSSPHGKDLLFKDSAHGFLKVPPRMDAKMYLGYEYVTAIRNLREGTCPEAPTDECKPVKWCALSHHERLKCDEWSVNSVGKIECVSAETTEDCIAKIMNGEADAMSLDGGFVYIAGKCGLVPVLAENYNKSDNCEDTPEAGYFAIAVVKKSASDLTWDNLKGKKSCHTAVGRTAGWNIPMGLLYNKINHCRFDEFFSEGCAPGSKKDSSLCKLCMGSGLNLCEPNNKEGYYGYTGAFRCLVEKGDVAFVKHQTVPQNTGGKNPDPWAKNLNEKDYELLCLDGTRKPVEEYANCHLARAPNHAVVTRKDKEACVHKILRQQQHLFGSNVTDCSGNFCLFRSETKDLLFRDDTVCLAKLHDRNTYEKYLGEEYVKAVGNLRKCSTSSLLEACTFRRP

[4] = target: 187 kDa protein/Complement component 3 (human) (UniProt P01024); assay: as above
Sequence of 187 kDa protein/Complement component 3 (human) (P01024 23-1663 limits assumed): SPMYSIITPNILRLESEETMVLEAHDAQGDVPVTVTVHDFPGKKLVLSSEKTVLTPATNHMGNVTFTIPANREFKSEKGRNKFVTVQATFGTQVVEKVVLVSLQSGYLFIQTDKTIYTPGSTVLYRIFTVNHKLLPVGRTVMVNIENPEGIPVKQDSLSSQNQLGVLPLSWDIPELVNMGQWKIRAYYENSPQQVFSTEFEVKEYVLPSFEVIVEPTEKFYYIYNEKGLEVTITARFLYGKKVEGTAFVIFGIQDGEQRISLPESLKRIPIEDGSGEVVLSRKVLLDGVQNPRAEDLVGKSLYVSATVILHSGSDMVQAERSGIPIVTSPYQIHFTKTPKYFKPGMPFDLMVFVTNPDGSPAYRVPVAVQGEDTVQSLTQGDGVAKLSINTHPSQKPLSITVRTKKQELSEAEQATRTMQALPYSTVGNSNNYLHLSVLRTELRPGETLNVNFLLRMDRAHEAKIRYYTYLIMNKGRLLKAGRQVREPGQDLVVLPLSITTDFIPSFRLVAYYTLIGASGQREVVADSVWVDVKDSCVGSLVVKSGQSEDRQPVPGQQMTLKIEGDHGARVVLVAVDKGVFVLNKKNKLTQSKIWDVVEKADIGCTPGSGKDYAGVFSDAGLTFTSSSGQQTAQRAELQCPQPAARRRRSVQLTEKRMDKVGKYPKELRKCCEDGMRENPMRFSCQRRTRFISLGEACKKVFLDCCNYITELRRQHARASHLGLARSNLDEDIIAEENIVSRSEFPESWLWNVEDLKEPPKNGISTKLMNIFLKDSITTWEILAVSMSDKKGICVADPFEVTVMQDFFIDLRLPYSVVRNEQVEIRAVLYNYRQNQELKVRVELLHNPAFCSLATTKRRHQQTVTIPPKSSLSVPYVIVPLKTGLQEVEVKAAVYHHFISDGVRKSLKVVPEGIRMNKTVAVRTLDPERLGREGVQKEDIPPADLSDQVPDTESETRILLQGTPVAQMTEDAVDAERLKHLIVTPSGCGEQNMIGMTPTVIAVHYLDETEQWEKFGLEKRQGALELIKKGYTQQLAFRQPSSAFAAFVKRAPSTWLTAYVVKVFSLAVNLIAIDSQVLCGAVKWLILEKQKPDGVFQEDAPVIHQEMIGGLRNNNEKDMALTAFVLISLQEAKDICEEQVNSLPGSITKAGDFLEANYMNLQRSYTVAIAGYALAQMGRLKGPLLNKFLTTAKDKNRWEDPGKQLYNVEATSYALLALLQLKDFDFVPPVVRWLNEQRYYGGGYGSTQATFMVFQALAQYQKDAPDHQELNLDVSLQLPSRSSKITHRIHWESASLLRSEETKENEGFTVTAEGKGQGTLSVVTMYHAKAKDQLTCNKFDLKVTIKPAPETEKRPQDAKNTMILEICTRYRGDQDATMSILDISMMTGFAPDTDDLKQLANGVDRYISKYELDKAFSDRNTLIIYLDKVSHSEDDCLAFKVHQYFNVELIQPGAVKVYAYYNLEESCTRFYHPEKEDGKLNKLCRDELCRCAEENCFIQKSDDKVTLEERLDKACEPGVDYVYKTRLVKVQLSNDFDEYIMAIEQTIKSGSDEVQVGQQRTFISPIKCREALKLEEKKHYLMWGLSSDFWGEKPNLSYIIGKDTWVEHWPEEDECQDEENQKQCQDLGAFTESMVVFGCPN

[5] = target: Vitronectin precursor (Serum-spreading factor/S-protein) (human) (UniProt P04004); assay: as above
Sequence of Vitronectin precursor (Serum-spreading factor/S-protein) (human) (P04004 20-478 limits assumed): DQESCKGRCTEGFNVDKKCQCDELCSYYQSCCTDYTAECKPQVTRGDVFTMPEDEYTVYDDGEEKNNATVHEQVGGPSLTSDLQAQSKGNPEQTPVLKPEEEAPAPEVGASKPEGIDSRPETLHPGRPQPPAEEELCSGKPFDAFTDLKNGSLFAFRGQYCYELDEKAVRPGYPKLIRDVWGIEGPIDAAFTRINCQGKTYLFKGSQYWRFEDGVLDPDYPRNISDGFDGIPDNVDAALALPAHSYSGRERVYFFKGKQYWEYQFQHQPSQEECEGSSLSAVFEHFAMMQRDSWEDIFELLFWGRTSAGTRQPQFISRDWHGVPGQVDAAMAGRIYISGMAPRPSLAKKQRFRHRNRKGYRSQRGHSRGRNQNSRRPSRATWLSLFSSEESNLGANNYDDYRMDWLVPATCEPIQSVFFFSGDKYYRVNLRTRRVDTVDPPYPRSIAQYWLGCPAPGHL

[6] = target: 25 kDa protein/immunoglobulin lambda chain/rheumatoid factor G9 light chain (lambda V3)/IGLC1 protein (human) (UniProt P0CG04); assay: as above
[7] = target: fibronectin 1 isoform 4 preproprotein (human) (UniProt P02751); assay: as above
[8] = target: Isoform H17 of Myeloperoxidase precursor (human) (UniProt P05164); assay: BiP-Sepharose pull-down, RA synovial fluid sample 4B, 1 M NaCl eluate, MS; may be indirect
[9] = target: IGHM protein, coagulation factor VII (serum prothrombin conversion accelerator) (human) (UniProt P08709); assay: as above
[10] = target: Hypothetical protein/Heat shock 70 kDa protein 5 (glucose-regulated protein, 78 kDa = GRP78 = BiP = HSPA5), as identified in eluates (human) (UniProt P11021); assay: BiP-Sepharose pull-down, RA synovial fluid sample 2B, 1 M NaCl eluate, MS; BiP may stem from the column
Sequence of Hypothetical protein/Heat shock 70 kDa protein 5 (glucose-regulated protein, 78 kDa = GRP78 = BiP = HSPA5), as identified in eluates (human) (P11021 19-654 limits assumed): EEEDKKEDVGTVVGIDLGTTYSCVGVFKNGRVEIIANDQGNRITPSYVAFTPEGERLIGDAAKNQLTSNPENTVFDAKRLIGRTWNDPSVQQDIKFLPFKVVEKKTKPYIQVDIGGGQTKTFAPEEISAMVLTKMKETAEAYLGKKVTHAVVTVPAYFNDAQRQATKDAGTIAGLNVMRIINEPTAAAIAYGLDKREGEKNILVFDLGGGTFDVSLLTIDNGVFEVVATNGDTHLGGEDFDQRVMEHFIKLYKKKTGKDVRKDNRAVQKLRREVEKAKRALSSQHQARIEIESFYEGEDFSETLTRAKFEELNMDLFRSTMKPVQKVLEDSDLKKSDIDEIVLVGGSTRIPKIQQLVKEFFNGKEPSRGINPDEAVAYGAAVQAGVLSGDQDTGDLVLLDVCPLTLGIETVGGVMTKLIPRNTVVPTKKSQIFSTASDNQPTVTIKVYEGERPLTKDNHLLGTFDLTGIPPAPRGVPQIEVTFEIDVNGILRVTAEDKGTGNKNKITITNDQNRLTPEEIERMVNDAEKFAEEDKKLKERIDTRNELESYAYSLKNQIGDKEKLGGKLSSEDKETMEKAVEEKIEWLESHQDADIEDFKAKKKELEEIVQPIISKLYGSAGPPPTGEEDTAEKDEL

[11] = target: Hypothetical protein/Heat shock 70 kDa protein 5 (glucose-regulated protein, 78 kDa = GRP78 = BiP = HSPA5), as identified in eluates (human) (UniProt P11021); assay: BiP-Sepharose pull-down, RA synovial fluid sample 3B, 1 M NaCl eluate, MS; BiP may stem from the column
[12] = target: Ig lambda chain V-III region SH (human) (UniProt P01714); assay: BiP-Sepharose pull-down, RA patient III serum (B4), MS of urea eluate; may be indirect
Sequence of Ig lambda chain V-III region SH (human) (P01714 21-112 limits assumed): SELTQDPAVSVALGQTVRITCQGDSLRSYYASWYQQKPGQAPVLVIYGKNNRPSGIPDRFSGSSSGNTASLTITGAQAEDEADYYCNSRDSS

[13] = target: Dapper homolog 1 (hDPR1) (human) (UniProt Q9NYF0); assay: as above
[14] = target: Immunoglobulin J chain, Immunoglobulin J polypeptide (human) (UniProt P01591); assay: as above
Sequence of Immunoglobulin J chain, Immunoglobulin J polypeptide (human) (P01591 23-159 limits assumed): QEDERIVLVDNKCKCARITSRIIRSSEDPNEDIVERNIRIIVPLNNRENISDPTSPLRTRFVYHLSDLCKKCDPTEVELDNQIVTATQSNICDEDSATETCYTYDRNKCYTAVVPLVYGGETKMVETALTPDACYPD

[15] = target: Vitronectin precursor (Serum-spreading factor/S-protein) (human) (UniProt P04004); assay: as above
[16] = target: Complement component 4 binding protein, alpha, C4b-binding protein alpha chain precursor (C4bp) (human) (UniProt P04003); assay: as above
[17] = target: V1-3 protein (Fragment)/immunoglobulin lambda variable 2-11 (human) (UniProt P01706); assay: as above
Sequence of V1-3 protein (Fragment)/immunoglobulin lambda variable 2-11 (human) (P01706 20-119 limits assumed): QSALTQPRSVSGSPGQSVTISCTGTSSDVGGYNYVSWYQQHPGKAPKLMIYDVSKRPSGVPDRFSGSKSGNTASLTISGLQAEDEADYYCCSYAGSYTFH

[18] = target: CD5 antigen-like precursor (SP-alpha, CT-2, IgM-associated peptide)/CD5 molecule-like (human) (UniProt O43866); assay: as above
Sequence of CD5 antigen-like precursor (SP-alpha, CT-2, IgM-associated peptide)/CD5 molecule-like (human) (O43866 20-347 limits assumed): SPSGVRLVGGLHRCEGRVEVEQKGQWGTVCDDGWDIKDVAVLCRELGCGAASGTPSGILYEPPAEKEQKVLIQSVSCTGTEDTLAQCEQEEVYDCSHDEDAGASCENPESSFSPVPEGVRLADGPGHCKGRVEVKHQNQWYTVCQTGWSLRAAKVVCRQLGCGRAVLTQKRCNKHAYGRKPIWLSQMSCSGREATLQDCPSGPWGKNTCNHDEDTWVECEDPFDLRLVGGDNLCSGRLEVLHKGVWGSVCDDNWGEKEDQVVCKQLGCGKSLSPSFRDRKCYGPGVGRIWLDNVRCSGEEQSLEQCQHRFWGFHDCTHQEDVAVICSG

[19] = target: Ig heavy chain V-III region CAM (human) (UniProt P01768); assay: BiP-Sepharose pull-down, RA patient IV synovial fluid (B6), MS of urea eluate; may be indirect
Sequence of Ig heavy chain V-III region CAM (human) (P01768 20-117 limits assumed): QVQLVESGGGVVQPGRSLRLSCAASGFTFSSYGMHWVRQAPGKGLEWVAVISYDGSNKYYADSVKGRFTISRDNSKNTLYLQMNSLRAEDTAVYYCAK

[20] = target: Immunoglobulin heavy constant mu (IPI00479708) (human) (UniProt P01871); assay: as above
Sequence of Immunoglobulin heavy constant mu (IPI00479708) (human) (P01871 other isoform, or with tags, fused parts or gaps limits assumed): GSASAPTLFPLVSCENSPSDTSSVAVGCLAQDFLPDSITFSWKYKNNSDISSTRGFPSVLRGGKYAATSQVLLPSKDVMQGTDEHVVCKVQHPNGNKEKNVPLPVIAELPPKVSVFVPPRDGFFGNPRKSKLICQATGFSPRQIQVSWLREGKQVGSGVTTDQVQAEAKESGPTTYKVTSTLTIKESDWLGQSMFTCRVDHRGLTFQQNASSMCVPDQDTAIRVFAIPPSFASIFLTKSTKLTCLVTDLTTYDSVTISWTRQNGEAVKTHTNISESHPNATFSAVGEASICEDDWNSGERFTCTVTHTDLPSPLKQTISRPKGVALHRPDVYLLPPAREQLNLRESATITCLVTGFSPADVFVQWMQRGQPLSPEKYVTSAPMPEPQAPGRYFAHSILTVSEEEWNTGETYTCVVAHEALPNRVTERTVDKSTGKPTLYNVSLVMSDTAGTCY

[21] = target: IGLC1 protein (immunoglobulin lambda C1)/immunoglobulin lambda chain/immunoglobulin C1 segment protein (fragment) (human) (UniProt P0CG04); assay: as above
Sequence of IGLC1 protein (immunoglobulin lambda C1)/immunoglobulin lambda chain/immunoglobulin C1 segment protein (fragment) (human) (P0CG04 whole entry, the tested form may be a part): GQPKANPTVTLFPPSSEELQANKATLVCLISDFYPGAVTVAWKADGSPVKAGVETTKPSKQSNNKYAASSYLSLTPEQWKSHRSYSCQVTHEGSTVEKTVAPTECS

[22] = target: Apolipoprotein E precursor/Apolipoprotein E/Apolipoprotein E3 (Fragment) (human) (UniProt P02649); assay: BiP-Sepharose pull-down, AL amyloidosis patient I plasma (B2), MS of urea eluate; may be indirect
[23] = target: Immunoglobulin heavy constant gamma 3 (G3m marker)/Ig gamma-3 chain C region (human) (UniProt P01860); assay: as above
[24] = target: Immunoglobulin lambda variable 3-25/V2-17 protein (Fragment) (human) (UniProt P01717); assay: as above
Sequence of Immunoglobulin lambda variable 3-25/V2-17 protein (Fragment) (human) (P01717 20-112 limits assumed): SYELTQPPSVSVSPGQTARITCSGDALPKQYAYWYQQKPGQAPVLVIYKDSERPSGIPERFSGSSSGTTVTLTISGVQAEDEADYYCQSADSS

[25] = target: Isoform Long of Antigen KI-67/Antigen KI-67 (human) (UniProt P46013); assay: as above
[26] = target: IGLC2 protein (immunoglobulin lambda C2)/Immunoglobulin lambda (human) (UniProt P0DOY2); assay: as above
[27] = target: 25 kDa protein/immunoglobulin lambda chain/rheumatoid factor G9 light chain (lambda V3)/IGLC1 protein (human) (UniProt P0CG04); assay: as above
[28] = target: Fc fragment of IgG binding protein (IgGFc-binding protein precursor) (human) (UniProt Q9Y6R7); assay: as above

# of unique peptides [1]: 1 peptides
# of unique peptides [2]: 1 peptides
# of unique peptides [3]: 1 peptides
# of unique peptides [4]: 1 peptides
# of unique peptides [5]: 2 peptides
# of unique peptides [6]: 1 peptides
# of unique peptides [7]: 2 peptides
# of unique peptides [8]: 1 peptides
# of unique peptides [9]: 1 peptides
# of unique peptides [10]: 12 peptides
# of unique peptides [11]: 19 peptides
# of peptides [12]: 2 peptides
# of peptides [13]: 2 peptides
# of peptides [14]: 5 peptides
# of peptides [15]: 4 peptides
# of peptides [16]: 7 peptides
# of peptides [17]: 1 peptides
# of peptides [18]: 1 peptides
# of peptides [19]: 2 peptides
# of peptides [20]: 1 peptides
# of peptides [21]: 1 peptides
# of peptides [22]: 6 peptides
# of peptides [23]: 2 peptides
# of peptides [24]: 8 peptides
# of peptides [25]: 1 peptides
# of peptides [26]: 1 peptides
# of peptides [27]: 1 peptides
# of peptides [28]: 4 peptides
Substance: recombinant human BiP with C-terminal linker, FLAG-tag and His-tag (BiP-FLAG-His) (from UniProt P11021 19-654)
